Key:
[1] = biological target: T1, human Mcl-1 (residues 172-327) (human, UniProt Q07820 172-327); assay: competition FP vs fluoresceinated Bim BH3, solution
T1 construct: range 172-327
Description: (§1) We used the cell-surface experiments to select six peptides, for which we determined solution Ki values using a competition fluorescence polarization (FP) assay (FIG. 3, panel d).

[2] = biological target: T2, human Bfl-1 (residues 1-151) (human, UniProt Q16548 1-151); assay: yeast display, sparse titration, apparent KD;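 further: designs displayed on the yeast cell surface, binding of soluble target protein measured at four concentrations spanning nanomolar to micromolar, apparent KD estimated from this sparse titration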
T2 construct: range 1-151
T2 sequence (looked up): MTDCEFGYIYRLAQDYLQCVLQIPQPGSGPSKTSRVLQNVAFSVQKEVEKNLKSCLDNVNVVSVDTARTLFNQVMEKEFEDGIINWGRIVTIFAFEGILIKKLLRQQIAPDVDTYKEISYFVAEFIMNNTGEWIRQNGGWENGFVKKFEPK
Protocol: (§2) We measured binding of the designs to 1, 10, 100 or 1000 nM of Bcl-xL, Mcl-1 and Bfl-1 using yeast cell-surface display.

[3] = biological target: T2, human Bfl-1 (residues 1-151); assay: competition FP vs fluoresceinated Bim BH3, solution
Description: as §1

[4] = biological target: T3, human Bcl-xL (residues 1-209) (human, UniProt Q07817 1-209); assay: yeast surface display
T3 construct: range 1-209
T3 sequence (Q07817 1-209 limits assumed): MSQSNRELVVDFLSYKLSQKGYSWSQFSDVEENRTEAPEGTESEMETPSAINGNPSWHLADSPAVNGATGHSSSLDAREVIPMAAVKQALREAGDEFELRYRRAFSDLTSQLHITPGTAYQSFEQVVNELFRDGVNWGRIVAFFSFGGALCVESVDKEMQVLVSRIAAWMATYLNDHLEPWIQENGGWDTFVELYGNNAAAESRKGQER

[5] = biological target: T2, human Bfl-1 (residues 1-151); assay: yeast surface display
[6] = biological target: T1, human Mcl-1 (residues 172-327); assay: yeast surface display
[7] = biological target: T3, human Bcl-xL (residues 1-209); assay: competition FP vs fluoresceinated Bim BH3, solution
Description: as §1

[8] = biological target: T1, human Mcl-1 (residues 172-327); assay: yeast display, sparse titration, apparent KD;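 further: designs displayed on the yeast cell surface, binding of soluble target protein measured at four concentrations spanning nanomolar to micromolar, apparent KD estimated from this sparse titration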
Protocol: as §2

[9] = biological target: T3, human Bcl-xL (residues 1-209); assay: yeast display, sparse titration, apparent KD;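 further: designs displayed on the yeast cell surface, binding of soluble target protein measured at four concentrations spanning nanomolar to micromolar, apparent KD estimated from this sparse titration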
Protocol: as §2

T1 sequence (Q07820 172-327 limits assumed): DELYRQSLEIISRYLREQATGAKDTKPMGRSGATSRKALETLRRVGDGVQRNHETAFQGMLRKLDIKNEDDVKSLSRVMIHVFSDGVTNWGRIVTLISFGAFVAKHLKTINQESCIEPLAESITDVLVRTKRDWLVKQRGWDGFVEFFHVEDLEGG

B1: srt.M1 (peptide)
peptide: Ac-RSELEVVQELVRIGDIVVAYFER-NH2
notes: synthetic solution peptide; also called vM1
Ki [1]: 2.4 nM

B2: srt.M9 (peptide)
peptide: Ac-RSQYEVIQELIRIGDIVLAYFER-NH2
notes: synthetic solution peptide; also called vM9
Ki [1]: 0.6 nM

GQRVVQIAAGLRRTGDQLEKYG [F6]
Kd [2]: < 100 nM

GRRVVQIAQGLRRAGDQLEKQG [F12]
Kd [2]: < 100 nM

GRRVVHIAAGLRRTGDQLEAQG [F3]
Kd [2]: < 100 nM

GRRVVQIAAGLRRTGDQLEKQG [F8]
Kd [2]: < 100 nM

GQRVVQIAQGLRRAGDQLEKYG [F11]
Kd [2]: < 100 nM

GQRVVHIAQGLRRTGDQLEAQG [F5]
Kd [2]: < 100 nM

GQRVVQIAQGLRRTGDQLEKQG [F7]
Kd [2]: < 100 nM

Ac-QWAREIGAQLRRMADDLNAQYER-NH2 [Puma]
Ki [3]: 4.8 nM
Ki [1]: 1.69 nM

GRRVRHIAQGLRRAGDQLDAYG [F1]
Kd [2]: < 100 nM

GRRVRHIAQGLRRAGDQLDKYG [F9]
Kd [2]: < 100 nM

GQRVRHIAQGLRRTGDQLDAYG [F2]
Kd [2]: < 100 nM

GRRVDEIAQILRRIGDNIEEYI [MF03]
binding result [4]: binds
binding result [5]: binds
binding result [6]: binds

GRRVDEIAQILRRIGDQIEEYI [MF07]
binding result [4]: binds
binding result [5]: binds
binding result [6]: binds

GRRVDEIAQILRRIGDNINEYI [MF04]
binding result [4]: binds
binding result [5]: binds
binding result [6]: binds

GRRVDEIAQILRRIGDNVTTYI (also called MF6) [MF06]
binding result [5]: binds
binding result [6]: binds

GRWIDQIAQFLRRIGDHIEKYI (also called MF2) [MF02]
binding result [4]: binds
binding result [5]: binds
binding result [6]: binds

Ac-QRIIWIAAELRRAADELDKQIER-NH2 (synthetic solution peptide) [srt.XF02]
Ki [7]: 37 nM
Ki [3]: 10 nM

Ac-QRIIWIAAELRRAADQLDAQIER-NH2 (synthetic solution peptide) [srt.XF03]
Ki [7]: 120 nM
Ki [3]: 22 nM

GRSELEVVQELVRIGDIVVAYF [M1]
Kd [8]: < 100 nM

GRSQIWYDQELVRSGDVNAAYR [MX2]
binding result [4]: no binding
binding result [6]: no binding

GRSQIWYDQELVRYGDVNAAYR [MX5]
binding result [4]: no binding
binding result [6]: no binding

GRSQIWYVQELVRSGDVNHAYR [MX6]
binding result [4]: no binding
binding result [6]: no binding

GRSQIWYDQELVRSGDENAAYR [MX3]
binding result [4]: no binding
binding result [6]: no binding

GRSQIWYDQELVRYADVNAAYR [MX4]
binding result [4]: no binding
binding result [6]: no binding

GRSQIWYVQELVRGGDVNHAYR [MX1]
binding result [4]: no binding
binding result [6]: no binding

GRSEIWYDQELVRSGDVNAAYR [MX7]
binding result [4]: no binding
binding result [6]: no binding

GQSLIWFGASLRRGADEFAAQR [X6]
Kd [9]: < 100 nM

GQPLIWFGASLRRGADEFAKQR [X3]
Kd [9]: < 100 nM

GQPLIWFGAQLRRGADEFAAQR [X7]
Kd [9]: < 100 nM

GQTLIWFGASLRRGADEFAAQR [X11]
Kd [9]: < 100 nM

Ac-QRVVHIAAGLRRTGDQLEAYGER-NH2 [srt.F4]
Ki [3]: > 4000 nM

GRRIDEIAQILRRIGDHIEKYI [MF01]
binding result [4]: binds
binding result [5]: binds
binding result [6]: binds

GRRIDEIAQILRRIGDHVEKYI [MF05]
binding result [4]: binds
binding result [5]: binds
binding result [6]: binds

GRSEYEYIQELIRIGDIVDAYF [M11]
Kd [8]: < 100 nM

GRGQLEYIQELIRIGDIVDAYF [M6]
Kd [8]: < 100 nM

GRSEYEYIQELIRIGDNVDAYF [M10]
Kd [8]: < 100 nM

GRSELEYIQELVRIGDEVDAYF [M5]
Kd [8]: < 100 nM

GRSEYEYIQELVRIGDEVDAYF [M2]
Kd [8]: < 100 nM

GRSELEYIQELIRIGDNVDAYF [M7]
Kd [8]: < 100 nM

GRSELEYIQELIRIGDIVDAYF [M8]
Kd [8]: < 100 nM

GRGQYEYIQELIRIGDIVDAYF [M12]
Kd [8]: < 100 nM

GQTLIWYGAQLRRYADEFAKQR [X2]
Kd [9]: < 100 nM

GQGLIWYGAQLRRVADDFAKQR [X12]
Kd [9]: < 100 nM

GQRLIWYGAQLRRYADDFAKQR [X10]
Kd [9]: < 100 nM

GQTLIWYGASLRRYADEFAKQR [X1]
Kd [9]: < 100 nM

GQTAIWYGASLRRAADEFAKQR [X5]
Kd [9]: < 100 nM

GQTLIWYGAQLRRVADDFAKQR [X4]
Kd [9]: < 100 nM

GQSMIWYGASLRRAADEFAKQR [X8]
Kd [9]: < 100 nM

GQTLIWYGAQLRRYADDFAKQR [X9]
Kd [9]: < 100 nM

GRSQYEVIQELIRIGDIVLAYF [M9]
Kd [8]: < 100 nM

GRSLYEYIQELIRIGDEVTAYF [M3]
Kd [8]: < 100 nM

GRSLLEYIQELIRIGDEVIAYF [M4]
Kd [8]: < 100 nM

Ac-RRVVQIAAGLRRAGDQLEKYGER-NH2 [srt.F10]
Ki [3]: 300 nM

From patent publication US20200262914A1 (MIT, published 2020)
